Assay results reported in US11866736B2, “Protein prostheses for mitochondrial diseases or conditions” (The General Hospital Corporation, priority 2015, dated 2024).
Substitutions are numbered along the chain they refer to. Names and notes keep the numbering of the source.

B1: LbNOX: water-forming NADH oxidase endogenous to Lactobacillus brevis; tested with C-terminal FLAG tag (protein, listed as Lactobacillus brevis)
chain: KVTVVGCTHAGTFAIKQILAEHPDAEVTVYERNDVISFLSCGIALYLGGKVADPQGLFYSSPEELQKLGANVQMNHNVLAIDPDQKTVTVEDLTNHAQTTESYDKLVMTSGSWPIVPKIPGIDSDRVKLCKNWAHAQALIEDAKEAKRITVIGAGYIGAELAEAYSTTGHDVTLIDAMARVMPKYFDADFTDVIEQDYRDHGVQLALGETVESFTDSATGLTIKTDKNSYETDLAILCIGFRPNTDLLKGKVDMAPNGAIITDDYMRSSNPDIFAAGDSAAVHYNPTHQNAYIPLATNAVRQGILVGKNLVKPTVKYMGTQSSSGLALYDRTIVSTGLTLAAAKQQGLNAEQVIVEDNYRPEFMPSTEPVLMSLVFDPDTHRILGGALMSKYDVSQSANTLSVCIQNENTIDDLAMVDMLFQPNFDRPFNYLNILAQAAQAKVAQSVNA
modifications: C-terminal FLAG tag
B2: TPNOX: NADPH-specific quintuple mutant (G159A/D177A/A178R/M179S/P184R) of LbNOX (protein)
chain: B1 chain with G158A, D176A, A177R, M178S, P183R

Tests used:
HeLa Tet3G cells = assay: Total NAD+/NADH ratio by HPLC; format: cell-based, human; settings: doxycycline-inducible expression
Description: One million HeLa Tet3G Luciferase, LbNOX or mitoLbNOX cells were seeded per a 10 cm plate in 10 ml of DMEM (DMEM (US Biological, D9800), 3.7 g/L NaHCO3, 10% dialyzed FBS (Life Technologies, 26400-044)). Twenty four hours and 1 hour before extraction, media was exchanged to 10 ml of DMEM without pyruvate (DMEM (US Biological, D9802), 15.9 mg/L phenol red, 3.7 g/L NaHCO3, 10% dialyzed FBS (Life Technologies, 26400-044)) with or without 300 ng/ml doxycycline. The media that was used 1 hour before extraction was preincubated overnight in tissue culture incubator without cells. Media was quickly aspirated, cells rinsed with 15 ml of ice-cold PBS, transferred to dry ice and 4 ml of dry ice cold solution of 80% methanol: 20% water (spiked with 5 μM Sodium L-Lactate-3,3,3-D3 and 0.2 μM Sodium [3-^13C]Pyruvate) was added and quickly spread around by tilting the plate. The whole procedure from aspiration of media to adding 80% methanol solution took about ˜15 seconds. The plate was transferred on dry ice to −80° C. freezer and incubated for 15 min. […]
Metabolites were analyzed by ion exchange chromatography using μBondapak NH2 300×3.9-mm column (Waters, WAT084040) attached to Agilent 1260 HPLC system. […] Absorbance was monitored at […] for NADH. […] Energy charge calculated ([ATP]+0.5 [ADP])/([ATP]+[ADP]+[AMP]) was usually ˜0.95.

primary rat hepatocytes = assay: Gluconeogenesis in primary hepatocytes (adenoviral transduction); format: cell-based; settings: adenovirus transduction, 5 mM lactate, glucose measured after 6 hours
Description: Two custom adenoviruses (Adenovirus Type 5 (dE1/E3)) were produced by Vector Biolabs. The same LbNOX and mitoLbNOX nucleotide sequences were used as in the lentiviral pLVX-TRE3G constructs. Adenoviral constructs encode for expression of either LbNOX or mitoLbNOX and eGFP, each gene driven by its own CMV promoter. Adenovirus with eGFP driven by the CMV promoter was used as a control (Vector Biolabs, 1060-HT).
Primary hepatocytes were obtained from the MGH Cell Resource Core, where they were freshly isolated by collagenase perfusion of livers from 24-hour fasted Sprague-Dawley rats and plated onto 24-well collagen-coated plates. Twenty four thousand cells were plated and cultured overnight in isolation media (DMEM with high glucose and pyruvate (Life Technologies, 11995)) supplemented with 20 ng/mL epidermal growth factor, 14.3 μg/mL glucagon, insulin, 7.5 μg/mL hydrocortisone, 10% FBS, 1% Penicillin-streptomycin). Cells were then transduced with the indicated adenoviral vector (MOI 20) and were serum starved by incubating in DMEM without additional supplementation overnight. […] Media was sampled 6 hours later and glucose was measured using the AMPLEX® Red Glucose Assay (Life-Technologies) and normalized to total protein levels from hepatocytes lysed in 1% SDS as measured by the BCA assay. […]

[1] = Enzymatic assay of NAD(P)H oxidase activity, NADPH as substrate (Michaelis-Menten analysis); format: biochemical
Description: TPNOX is highly specific towards NADPH (e.g., approximately 1120 fold more reactive with NADPH than with NADH based on respective kat/KM values).
Recombinant LbNOX activity was monitored by following the decrease of the absorbance of NAD(P)H at […] using CARY® 100 spectrophotometer (Agilent, CA). A typical reaction mixture contained 2 μM FAD in 0.5 ml of the assay buffer (50 mM Na2HPO4, pH 7.5, 150 mM NaCl) and was incubated for 4 min at 37° C. before NAD(P)H (2-600 μM) and enzyme (0.08-6.8 μg) were added. Extinction coefficient (ε340=6.2 mM^−1 cm^−1) was used to calculate NAD(P)H oxidase activity. Simultaneous monitoring of oxygen consumption and NADH fluorescence was performed using a custom-built fluorimeter. In our setup the REDEYE™ oxygen patch (OceanOptics) was installed in a cuvette and the optical probe was connected to a fluorimeter. Oxygen causes quenching of the REDEYE™ patch fluorescence which allows to monitor the partial pressure of oxygen. In our experiments 0.5 ml of the assay buffer was preincubated at 28° C. before NADH (40-1500 μM) and LbNOX (0.1-2 μg) were added.

Row | Molecule | effect on total NAD+/NADH ratio (HeLa Tet3G cells) | gluconeogenesis from lactate (primary rat hepatocytes) | kcat with NADPH [1] | Km ([1]; recombinant enzyme)
1 | B1 | did not have a significant effect | significantly increased |  | 
2 | B2 |  |  | 268 ± 4 s⁻¹ | 22 ± 2 µM
